From patent publication US20230374087A1, “METHOD TO IMPROVE PROTEIN QUALITY CONTROL” (The Johns Hopkins University, priority 2020, published 2023)
Positions count from the first letter of the chain named. Numbers in names are those of the source.

What was measured:
[1] = test system: CHIP pS20; experiment: Immunoblot for phospho-S20 CHIP in myocytes; assay type: cell-based, rat; conditions: cardiomyocytes; cGMP or SIL; DT3 1 μM
Procedure: (§1) Tissue and cultured cardiomyocytes were lysed in 1× lysis buffer (Cell Signaling Technology), protein concentration was measured by bicinchoninic acid assay (Pierce), and extracts were subjected to SDS-PAGE using Novex Tris-Glycine Gels (4-20% gradient gel, Life Technologies) or Mini-protean TGX Gels (4-20% gradient gel, Bio-Rad), transferred to nitrocellulose membranes, and probed with various primary antibodies (CHIP (#2080S), Hsc70 (#8444S), p-CHIP S20 (Custom antibody, AbMart Inc., Shanghai, China; Project: 25011-1), Myc (#2276S), GAPDH (#2118S), and α-tubulin (#3878S) (Cell Signaling) and ubiquitin antibody (#SAB4503053) from Sigma), and fluorescence-labeled secondary antibodies (Licor, #926-32211, 926-32210, 926-68023, or 926-68022). Gels were imaged (Odyssey, Licor) and band intensity quantified (Odyssey Software 3.1).
Human CHIP peptide fragments containing amino acid residues 13-30 were incubated with cGMP/PKG and assayed by MS. […] Phosphorylation was also observed at neighboring S24 and S26, but only when a S20A CHIP mutant was used (FIG. 2D). This indicates the primary target for PKG on CHIP is at S20. A monoclonal phospho-antibody generated against the S20 site in CHIP was tested in vitro with recombinant PKG1α and CHIP, verifying a consistent phospho-S20-CHIP signal. Use of a CHIP-S20A mutant CHIP confirmed specificity (FIG. 2E).

[2] = test system: TTR-V122I; experiment: TTR abundance in hiPSC-CMs by western blot; assay type: cell-based, human; conditions: TTR-V122I 5 μM; for TTR accumulation: Ad-Chip 10 MOI; for TTR accumulation with Lamp2A knockdown: siLamp2A 100 μM
Procedure: (§2) Human induced pluripotent stem cell derived cardiomyocytes (hiPSC-CMs) were infected with Ad-Chip WT, SE, or SA (10 MOI), in the presence or absence of protein kinase G (PKG) stimulation via cGMP (100 mM) and exposed to media containing TTR-V122I (5 μM) or control for 14 days. Cells were lysed and TTR abundance was determined by western blotting for TTR with a total protein stain used to show equal loading.
as §2, with “Lamp2A knockdown” for “protein kinase G (PKG) stimulation”, “siRNA (siLamp2A, 100 μM)” for “cGMP (100 mM)”, “loading. Knocking down Lamp2A removes the method of protein degradation known as chaperone mediated autophagy (CMA).” for “loading.”

[3] = test system: neonatal rat cardiomyocytes (NRCMs)
Procedure: After overnight culture, subsets of NRCMs were infected with adenovirus (AdV) containing a FLAG-tagged PDE5, FLAG control, Myc-tagged CHIP WT or K31A (provided by Dr. Cam Patterson), S20E or S20A (Welgen Inc., Worcester, MA). Forty-eight hours after infection, cells were exposed to either simulated ischemia (SI) or normal conditions. SI involved incubating cells in DMEM containing deoxyglucose (20 mM), NaCl (125 mM), KCl (8 mM), KH2PO4 (1.2 mM), MgSO4 (1.25 mM), CaCl2) (1.2 mM), NaHCO3(6.25 mM), sodium lactate (5 mM), and HEPES (20 mM) with a pH of 6.6. Cells were then placed in an incubator chamber (Billups-Rothenberg) with 95% nitrogen, 4% carbon dioxide, and 1% oxygen. Normoxic controls were incubated in DMEM supplemented with 10% FBS in air composed of 95% carbon dioxide and 5% oxygen. RNA or protein was harvested after 48 hours of SI. Cells were also treated with sildenafil (1 μM) or vehicle, or small interference RNA (siRNA, 100 pM) specific for rat Stub1 (Qiagen, Cat. #: SI01532251) or scrambled control provided 24 hours after plating and transfected with Xfect (Takara) per manufacturer protocol.
Lactate dehydrogenase (LDH) leakage and (3-[4,5-dimethylthiazol-2-yl]-2,5-diphenyltetrazolium bromide) (MTT) were assessed in cultured cardiomyocytes and media after SI from the same culture dish. LDH was assayed by commercial assay (Roche) following manufacturer's protocol, read in 96 well microplates on a Spectramax M5 (Molecular Devices) at 490 nm absorbance. For MTT, cells were washed in phosphate-buffered saline, MTT (Sigma-Aldrich) working solution added to the culture dish, incubated at 37° C., solubilized with acidic isopropanol, transferred to a 96 well plate, and read at 570 nm with background subtraction at 650 nm on a Spectramax M5.

[4] = test system: myocardial infarction; experiment: Myocardial infarction by coronary ligation in CHIP S20E knock-in mice
Excerpt: Male and female mice (aged ˜3-4 months) were subjected to transmural myocardial infarction by mid left anterior descending artery ligation under open thoracotomy (25). Controls underwent open chest surgery and LAD isolation without ligation. Data obtained 1-week after infarction included 2D echocardiography (Vevo2100, 20-MHz; Visualsonics) in conscious mice to measure LV volume and ejection fraction, with analysis blinded to study group.
Myocardium was fixed in 4% paraformaldehyde, paraffin embedded, and sectioned into 4 μm slices, and stained with Masson's Trichrome. Fibrosis was quantified by color-based pixel count and intensity in parallel sections of the ischemic and remote areas (Aperio Image Scope). Transmural infarct size was estimated as the arc angle subtended by dense scar in a mid-MI cross section divided by 360° and expressed as percent. Immunostaining for ubiquitin (Sigma) and CHIP (Cell Signaling) was performed using AlexaFluor 488 conjugated secondary antibodies following the manufacturer's protocol. Counterstain was performed using DAPI (Invitrogen) and Troponin-T (Thermo Scientific) antibodies. Image acquisition was performed on a Leica confocal microscope (TCS SPE II) at 40× magnification.

[5] = target: T1, Hsp70 (385-641) (Homo sapiens, UniProt P0DMV8); experiment: Isothermal titration calorimetry of CHIP-Hsp70 binding; conditions: ITC, 25° C.; for enthalpy (DH) / entropy (DS): triplicate, average ± SD
T1 construct: Hsp70 (385-641)
T1 sequence (P0DMV8 385-641): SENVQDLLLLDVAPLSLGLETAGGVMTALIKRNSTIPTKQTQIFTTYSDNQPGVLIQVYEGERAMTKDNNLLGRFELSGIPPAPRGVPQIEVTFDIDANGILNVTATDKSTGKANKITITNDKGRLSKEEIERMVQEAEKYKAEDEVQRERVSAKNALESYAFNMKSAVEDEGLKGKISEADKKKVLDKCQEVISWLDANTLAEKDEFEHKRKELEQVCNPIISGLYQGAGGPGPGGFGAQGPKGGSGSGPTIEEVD
Procedure: Isothermal titration calorimetry was carried out using a TA Instruments NanoITC equilibrated at 25° C. and utilizing a stir speed of 600 rpm. Experiments were conducted in triplicate and data represents the average±one standard deviation. Titrations utilized 350 μM WT or S20E CHIP titrated into 50 µM Hsp70 (385-641) as a series of twenty four 2 μL injections.

[6] = target: T2, Hsc70 (Rattus norvegicus, UniProt P63018); experiment: CHIP-Hsc70 co-immunoprecipitation from myocyte lysate; assay type: cell-based; conditions: myocytes with or without SI, Hsc70 as bait
T2 construct: lysate from myocytes with or without exposure to SI were immunoprecipitated using Hsc70 as bait; endogenous in cells; host or cells: neonatal rat cardiomyocytes infected with adenovirus for Myc-tagged CHIP WT, S20E or S20A
Procedure: as §1
To test whether thermodynamic stabilization of CHIP-HSC70 due to S20 phosphorylation enhances protein binding, lysate from myocytes with or without exposure to SI were immunoprecipitated using Hsc70 as bait. […] Reduced CHIP-Hsc70 interaction was also observed in vivo following MI in hearts with PKG activation suppressed by mPDE5A/oe, whereas this was enhanced in WT hearts (FIG. 5C, FIG. 14B).

[7] = test system: TTR-V122I; experiment: TTR abundance in cardiac fibroblasts by western blot; assay type: cell-based; conditions: neonatal rat cardiac fibroblasts, WT or SA 10 MOI, SE 0, 2.5, 5 or 10 MOI, TTR-V122I 5 μM, 14 days
Procedure: Fibroblasts were isolated from neonatal rat hearts and infected with Ad-Chip WT or SA (10 MOI) or SE (0, 2.5, 5, or 10 MOI) and exposed to media containing TTR-V122I (5 μM) for 14 days. Cells were lysed and TTR abundance was determined by western blotting for TTR with a total protein stain used to show equal loading.

[8] = target: T3, Hsp40-stimulated ATPase activity of Hsc70 (Homo sapiens, UniProt P11142); experiment: Chaperone refolding ATPase activity assay; assay type: biochemical; conditions: CHIP 0.5-6 μM, Hsc70 0.5 μM, Hsp40 0.25 μM
T3 construct: His-tag (N); made in house; host or cells: E. coli BL21(DE3)
T3 sequence (P11142 whole entry): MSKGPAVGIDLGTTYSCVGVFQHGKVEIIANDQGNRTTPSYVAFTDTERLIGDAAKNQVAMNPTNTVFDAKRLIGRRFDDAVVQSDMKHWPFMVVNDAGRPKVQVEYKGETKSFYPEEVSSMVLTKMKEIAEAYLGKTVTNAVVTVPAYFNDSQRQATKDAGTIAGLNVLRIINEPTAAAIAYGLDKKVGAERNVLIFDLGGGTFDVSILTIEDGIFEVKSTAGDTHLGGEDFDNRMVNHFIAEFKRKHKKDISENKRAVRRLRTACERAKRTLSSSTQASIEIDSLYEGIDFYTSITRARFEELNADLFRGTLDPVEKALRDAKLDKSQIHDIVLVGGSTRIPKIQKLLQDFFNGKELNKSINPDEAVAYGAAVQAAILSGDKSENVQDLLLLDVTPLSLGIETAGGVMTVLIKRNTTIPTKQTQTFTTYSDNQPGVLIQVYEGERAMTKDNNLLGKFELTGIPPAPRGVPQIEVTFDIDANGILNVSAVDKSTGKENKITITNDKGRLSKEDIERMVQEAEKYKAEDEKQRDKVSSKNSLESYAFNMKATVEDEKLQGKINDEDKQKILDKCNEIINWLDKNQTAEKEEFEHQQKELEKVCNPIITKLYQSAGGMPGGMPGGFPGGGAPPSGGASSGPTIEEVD
Procedure: Human HSP40 (DnaJB1), human CHIP and CHIP point mutants in pET30a with a C-terminal His-tag and hHsc70 (HSPA8) wild type with an N-terminal His-tag in pCOLA-Duet1 were expressed in BL21(DE3) and purified on Ni-NTA (Qiagen). Hsc70 and CHIP proteins were induced and expressed for 22 hours at 18° C. Hsp40 protein was induced and expressed for 5 hours at 25° C. Required stock solutions of proteins were prepared by diluting high concentrated stocks in protein storage buffer into protein storage buffer, 20 mM HEPES (pH7.4), 150 mM NaCl. Hsc70 and Hsp40 were used at a concentration of 0.5 μM and 0.25 μM, respectively, with a gradient of CHIP protein concentrations (0.5-6 μM). Hsp40-stimulated ATPase activity of Hsc70 was measured using fluorescent polarization with the […]® ADP2 FP Assay (BellBrook Labs, 3010-1K) on a Clariostar plate reader (BMG) in 384 well black, non-binding plates (Greiner, 784900). Optimized instrument settings were used: Excitation wavelength. 590 nm; Emission wavelength: 675 nm; Required value: 5%; Target mP: 20; Gain A: 1824; Gain B: 1854; Focal Height: 12.4 mm. Values of μM ADP formed in the reactions were interpolated from an ATP/ADP standard curve run in parallel.

[9] = 14 days, no Lamp2A knockdown (Example 8)

## Nc1nc2c(ncn2[C@@H]2O[C@@H]3COP(=O)(O)O[C@H]3[C@H]2O)c(=O)[nH]1 [cGMP, cyclic guanosine monophosphate, reference compound]
[1]
  CHIP pS20 level: CHIP pS20 increased
[2]; cGMP 100 mM, 14 days
  TTR accumulation with PKG stimulation: reduce TTR accumulation in Chip WT cells but not in Chip SA cells

B1: S24E: S24E mutant CHIP overexpressed in neonatal myocytes (protein, UniProt Q9WUD1 1-304, looked up, variant S24E)
E3 ubiquitin-protein ligase …: MKGKEEKEGGARLGTGGGGSPDKEPSAQELKEQGNRLFVGRKYPEAAACYGRAITRNPLVAVYYTNRALCYLKMQQPEQALADCRRALELDGQSVKAHFFLGQCQLEMESYDEAIANLQRAYSLAKEQRLNFGDDIPSALRIAKKKRWNSIEERRIHQESELHSYLTRLIAAERERELEECQRNHEGHEDDGHIRAQQACIEAKHDKYMADMDELFSQVDEKRKKRDIPDYLCGKISFELMREPCITPSGITYDRKDIEEHLQRVGHFDPVTRSPLTQEQLIPNLAMKEVIDAFISENGWVEDY
[3]
  SI-induced cytotoxicity (LDH/MTT ratio): no significant impact on the cytotoxic response to SI or SI+SIL

B2: S20E/S24E: S20E/S24E combination mutant CHIP (protein, UniProt Q9WUD1 1-304, looked up, variant S20E S24E)
E3 ubiquitin-protein ligase …: B1 E3 ubiquitin-protein ligase … with S20E
[3]
  SI-induced cytotoxicity (LDH/MTT ratio): very similar to those with S20 mutations alone

B3: S24A: S24A mutant CHIP overexpressed in neonatal myocytes (protein, UniProt Q9WUD1 1-304, looked up, variant S24A)
E3 ubiquitin-protein ligase …: B1 E3 ubiquitin-protein ligase … with E24A
[3]
  SI-induced cytotoxicity (LDH/MTT ratio): no significant impact on the cytotoxic response to SI or SI+SIL

B4: S20A/S24A: S20A/S24A combination mutant CHIP (protein, UniProt Q9WUD1 1-304, looked up, variant S20A S24A)
E3 ubiquitin-protein ligase …: B1 E3 ubiquitin-protein ligase … with S20A, E24A
[3]
  SI-induced cytotoxicity (LDH/MTT ratio): very similar to those with S20 mutations alone

B5: CHIP-S20E: CHIP with serine 20 to glutamic acid phospho-mimetic substitution; recombinant protein, adenovirus-expressed, or knock-in mouse (protein)
chain: MKGKEEKEGGARLGAGGGEPEKSPSAQELKEQGNRLFVGRKYPEAAACYGRVITRNPLVAVYYTNRALCYLKMQQHEQALADCRRALELDGQSVKAHFFLGQCQLEMESYDEAIANLQRAYSLAKEQRLNFGDDIPSALRIAKKKRWNSIEERRIHQESELHSYLSRLIAAERERELEECQRNHEGDEDDSHVRAQQACIEAKHDKYMADMDELFSQVDEKRKKRDIPDYLCGKISFELMREPCITPSGITYDRKDIEEHLQRVGHFDPVTRSPLTQEQLIPNLAMKEVIDAFISENGWVEDY
modifications: left off: small tags and cut ends
notes: CHIP with serine 20 to glutamic acid phospho-mimetic substitution; recombinant protein, adenovirus-expressed, or knock-in mouse
[4]; knock-in mice vs littermate controls, peri-infarct zone
  accumulation of ubiquitinated proteins after MI: less accumulation of ubiquitinated proteins
[4]; male homozygotes and heterozygotes vs littermate controls
  mortality after MI: lower mortality
[4]; male knock-in mice vs littermate controls
  infarction size after MI: reduced infarction size
[4]; male knock-in mice vs littermate controls, echocardiography
  heart function after MI: improved heart function
[5]
  increase of Hsp70 affinity as compared to CHIP-WT: 59%
  more negative enthalpy as compared to CHIP-WT: 1.34 kcal/mol
  enthalpy (DH): -7.67 ± 0.22 kcal/mol
  entropy (DS): 2.34e-06 ± 8.84e-07 kcal/mol
[5]; read-out: increase of Hsp70 affinity as compared to CHIP-WT
  Kd: ~500 nM
[6]
  co-precipitation of CHIP and Hsc70: confirmed
[7]
  TTR accumulation: cleared by Chip SE expression in a dose-dependent manner
[2]; 14 days (Example 7)
  TTR accumulation: cleared
[2]; [9]
  TTR accumulation: cleared
[2]; 14 days
  TTR accumulation with Lamp2A knockdown: removed the protective effect

B6: CHIP-K31A: CHIP Lys 31 (K30 in humans) to Ala mutant that abolishes CHIP chaperone interactions (protein)
chain: B5 chain with E19S, K30A
modifications: left off: small tags and cut ends
[8]
  inhibition of Hsp70 ATPase activity: an effect that was lost

B7: CHIP-WT: wild type carboxy terminus of Hsc70-interacting protein (CHIP), recombinant or adenovirus-expressed (protein)
chain: B5 chain with E19S
modifications: left off: small tags and cut ends
[5]
  enthalpy (DH): -6.31 ± 0.789 kcal/mol
  entropy (DS): 6.09e-06 ± 1.98e-06 kcal/mol
[6]
  co-precipitation of CHIP and Hsc70: confirmed
[8]
  inhibition of Hsp70 ATPase activity: dose-dependently inhibited
[7]
  TTR accumulation: TTR accumulated
[2]; 14 days (Example 7)
  TTR accumulation: TTR accumulated
[2]; [9]
  TTR accumulation: TTR accumulated
[2]; 14 days
  TTR accumulation with Lamp2A knockdown: exacerbated the accumulation of TTR
